Measured values: patent publication US20050064507

What was measured:
[1] = target: T1, CACNA1C peptide RGFLRSASLGRRASFHLE (SEQ ID NO:96) (not fully specified)
T1 chain: RGFLRSASLGRRASFHLE

[2] = target: T2, absent in melanoma 1 peptide RSGRRRGSQKS (SEQ ID NO:173) (not fully specified)
T2 chain: RSGRRRGSQKS

[3] = target: T3, PLEK peptide KFARKSTRRSIRLPE (SEQ ID NO:78) (not fully specified)
T3 chain: KFARKSTRRSIRLPE

[4] = target: T4, FLJ20574 peptide GENVLKKSMKSRVKG (SEQ ID NO:113) (not fully specified)
T4 chain: GENVLKKSMKSRVKG

[5] = target: T5, NF1 peptide SQVQKQRSAGSFKRNSIKKI (SEQ ID NO:127) (not fully specified)
T5 chain: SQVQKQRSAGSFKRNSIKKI

[6] = target: T6, fit1 peptide VQMTWSYPDEKNKRASVRRR (SEQ ID NO:158) (not fully specified)
T6 chain: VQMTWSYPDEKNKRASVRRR

[7] = target: T7, MARCKS peptide KKRFSFKKSFKLSGFSFKKN (SEQ ID NO:119) (not fully specified)
T7 chain: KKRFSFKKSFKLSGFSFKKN

[8] = target: T8, MYBPC3 peptide LLKKRDSFRTPRDSKLE (SEQ ID NO:103) (not fully specified)
T8 chain: LLKKRDSFRTPRDSKLE

[9] = target: T9, ADD2 peptide KKKFRTPSFLKKSKK (SEQ ID NO:95) (not fully specified)
T9 chain: KKKFRTPSFLKKSKK

[10] = target: T10, CHRM1 peptide RKIPKRPGSVHRTPSRQ (SEQ ID NO:83) (not fully specified)
T10 chain: RKIPKRPGSVHRTPSRQ

[11] = target: T11, cyclophilin G peptide TEEKSKKRKKKHRKNSRKHK (SEQ ID NO:165) (not fully specified)
T11 chain: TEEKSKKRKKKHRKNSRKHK

[12] = target: T12, PPP1R14A peptide QKRHARVTVKYDRRE (SEQ ID NO:107) (not fully specified)
T12 chain: QKRHARVTVKYDRRE

[13] = target: T13, ANK1 peptide AQIVKRASLKRGKQ (SEQ ID NO:90) (not fully specified)
T13 chain: AQIVKRASLKRGKQ

[14] = target: T14, MacMARCKS peptide KKKFSFKKPFKLSGLSFKRN (SEQ ID NO:162) (not fully specified)
T14 chain: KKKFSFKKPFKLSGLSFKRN

[15] = target: T15, NMDAR1 peptide RAITSTLASSFKRRR (SEQ ID NO:122) (not fully specified)
T15 chain: RAITSTLASSFKRRR

[16] = target: T16, SOLH peptide PLRRRESMHVEQ (SEQ ID NO:210) (not fully specified)
T16 chain: PLRRRESMHVEQ

[17] = target: T17, PLEC1 peptide KRERKTSSKSSVRKRR (SEQ ID NO:81) (not fully specified)
T17 chain: KRERKTSSKSSVRKRR

[18] = target: T18, ribosomal protein S6 peptide AKRRRLSSLRASTSK (SEQ ID NO:120) (not fully specified)
T18 chain: AKRRRLSSLRASTSK

[19] = target: T19, pleckstrin 1 peptide KAIKAIEGGQKFARKSTRRS (SEQ ID NO:126) (not fully specified)
T19 chain: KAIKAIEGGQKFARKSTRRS

[20] = target: T20, kinesin 3C peptide LEKRGMLGKRPRRKSSRRKK (SEQ ID NO:133) (not fully specified)
T20 chain: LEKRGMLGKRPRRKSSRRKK

[21] = target: T21, titin peptide PFEVVWYKDKRQLRSSKKYK (SEQ ID NO:160) (not fully specified)
T21 chain: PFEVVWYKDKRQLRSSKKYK

[22] = target: T22, NR4A3 peptide KEVVRTDSLKGRRGR (SEQ ID NO:109) (not fully specified)
T22 chain: KEVVRTDSLKGRRGR

[23] = target: T23, calcium channel, voltage-dependent, L type, alpha peptide RDIRQSPKRGFLRSASLGRR (SEQ ID NO:147) (not fully specified)
T23 chain: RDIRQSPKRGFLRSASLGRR

[24] = target: T24, ASIP peptide KKRSSKKEASMKKVVRP (SEQ ID NO:97) (not fully specified)
T24 chain: KKRSSKKEASMKKVVRP

[25] = target: T25, PARIS1 peptide EYLERRASRRRAV (SEQ ID NO:130) (not fully specified)
T25 chain: EYLERRASRRRAV

[26] = target: T26, NEURL peptide ALRRPSLRREADD (SEQ ID NO:105) (not fully specified)
T26 chain: ALRRPSLRREADD

[27] = target: T27, ERN1 peptide ISDFGLAKKLAVGRHSFSRR (SEQ ID NO:145) (not fully specified)
T27 chain: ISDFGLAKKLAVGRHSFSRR

[28] = target: T28, nuclear RNA export factor 3 peptide VRYTPYTISPYNRKGSFRKQ (SEQ ID NO:143) (not fully specified)
T28 chain: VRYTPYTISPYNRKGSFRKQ

[29] = target: T29, MAP3K14 peptide WKGKRRSKARKKRK (SEQ ID NO:100) (not fully specified)
T29 chain: WKGKRRSKARKKRK

[30] = target: T30, splicing factor, arginine/serine-rich 4 peptide RSRSRSRSKSKDKRKSRKRS (SEQ ID NO:134) (not fully specified)
T30 chain: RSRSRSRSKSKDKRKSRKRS

[31] = target: T31, NIK peptide WKGKRRSKARKKRK (SEQ ID NO:131) (not fully specified)
T31 chain: WKGKRRSKARKKRK

B1: PKC-theta (protein)
chain: MSPFLRIGLSNFDCGSCQSCQGEAVNPYCAVLVKEYVESENGQMYIQKKPTMYPPWDSTFDAHINKGRVMQIIVKGKNVDLISETTVELYSLAERCRKNNGKTEIWLELKPQGRMLMNARYFLEMSDTKDMNEFETEGFFALHQRRGAIKQAKVHHVKCHEFTATFFPQPTFCSVCHEFVWGLNKQGYQCRQCNAAIHKKCIDKVIAKCTGSAINSRETMFHKERFKIDMPHRFKVYNYKSPTFCEHCGTLLWGLARQGLKCDACGMNVHHRCQTKVANLCGINQKLMAEALAMIESTQQARCLRDTEQIFREGPVEIGLPCSIKNEARPPCLPTPGKREPQGISWESPLDEVDKMCHLPEPELNKERPSLQIKLKIEDFILHKMLGKGSFGKVFLAEFKKTNQFFAIKALKKDVVLMDDDVECTMVEKRVLSLAWEHPFLTHMFCTFQTKENLFFVMEYLNGGDLMYHIQSCHKFDLSRATFYAAEIILGLQFLHSKGIVYRDLKLDNILLDKDGHIKIADFGMCKENMLGDAKTNTFCGTPDYIAPEILLGQKYNHSVDWWSFGVLLYEMLIGQSPFHGQDEEELFHSIRMDNPFYPRWLEKEAKDLLVKLFVREPEKRLGVRGDIRQHPLFREINWEELERKEIDPPFRPKVKSPFDCSNFDKEFLNEKPRLSFADRALINSMDQNMFRNFSFMNPGMERLIS
in vitro phosphorylation (% of best substrate) [1]: 21 | in vitro phosphorylation (% of best substrate) [2]: 85 | in vitro phosphorylation (% of best substrate) [3]: 47 | in vitro phosphorylation (% of best substrate) [4]: 10 | in vitro phosphorylation, 1 uM peptide (% of best substrate) [5]: 45 | in vitro phosphorylation, 10 uM peptide (% of best substrate) [5]: 58 | in vitro phosphorylation, 1 uM peptide (% of best substrate) [6]: 19 | in vitro phosphorylation, 10 uM peptide (% of best substrate) [6]: 23 | in vitro phosphorylation, 1 uM peptide (% of best substrate) [7]: 69 | in vitro phosphorylation, 10 uM peptide (% of best substrate) [7]: 28 | in vitro phosphorylation (% of best substrate) [8]: 24 | in vitro phosphorylation (% of best substrate) [9]: 42 | in vitro phosphorylation (% of best substrate) [10]: 92 | in vitro phosphorylation, 1 uM peptide (% of best substrate) [11]: 16 | in vitro phosphorylation, 10 uM peptide (% of best substrate) [11]: 14 | in vitro phosphorylation (% of best substrate) [12]: 40 | in vitro phosphorylation (% of best substrate) [13]: 38 | in vitro phosphorylation, 1 uM peptide (% of best substrate) [14]: 14 | in vitro phosphorylation, 10 uM peptide (% of best substrate) [14]: 13 | in vitro phosphorylation, 1 uM peptide (% of best substrate) [15]: 66 | in vitro phosphorylation, 10 uM peptide (% of best substrate) [15]: 42 | in vitro phosphorylation (% of best substrate) [16]: 16 | in vitro phosphorylation (% of best substrate) [17]: 46 | in vitro phosphorylation, 1 uM peptide (% of best substrate) [18]: 51 | in vitro phosphorylation, 10 uM peptide (% of best substrate) [18]: 51 | in vitro phosphorylation, 1 uM peptide (% of best substrate) [19]: 46 | in vitro phosphorylation, 10 uM peptide (% of best substrate) [19]: 45 | in vitro phosphorylation, 1 uM peptide (% of best substrate) [20]: 46 | in vitro phosphorylation, 10 uM peptide (% of best substrate) [20]: 53 | in vitro phosphorylation, 1 uM peptide (% of best substrate) [21]: 19 | in vitro phosphorylation, 10 uM peptide (% of best substrate) [21]: 25 | in vitro phosphorylation (% of best substrate) [22]: 9 | in vitro phosphorylation, 1 uM peptide (% of best substrate) [23]: 20 | in vitro phosphorylation, 10 uM peptide (% of best substrate) [23]: 69 | in vitro phosphorylation (% of best substrate) [24]: 31 | in vitro phosphorylation, 1 uM peptide (% of best substrate) [25]: 38 | in vitro phosphorylation, 10 uM peptide (% of best substrate) [25]: 44 | in vitro phosphorylation (% of best substrate) [26]: 21 | in vitro phosphorylation, 1 uM peptide (% of best substrate) [27]: 27 | in vitro phosphorylation, 10 uM peptide (% of best substrate) [27]: 25 | in vitro phosphorylation, 1 uM peptide (% of best substrate) [28]: 25 | in vitro phosphorylation, 10 uM peptide (% of best substrate) [28]: 27 | in vitro phosphorylation (% of best substrate) [29]: 56 | in vitro phosphorylation, 1 uM peptide (% of best substrate) [30]: 36 | in vitro phosphorylation, 10 uM peptide (% of best substrate) [30]: 16 | in vitro phosphorylation, 1 uM peptide (% of best substrate) [31]: 53 | in vitro phosphorylation, 10 uM peptide (% of best substrate) [31]: 35
